B1: FBXO3 (parent)
chain: DEEERRRRVFDVPIRRRRCSRLF

Variants of: B1
Test: protein stability index of a GFP-peptide fusion (GPS, HEK-293T) (PSI 1-6); higher = more stable
Settings: c terminus: native
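Further: lentivirally expressed fusions sorted by FACS into six bins by GFP to DsRed ratio, PSI derived from sequencing read proportions per bin multiplied by bin number.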

Variant | protein stability index
DEEERRRRVFDVPIRRRFCSRLF [R18F] | 1.57
DEEERRRRVFDVPIRRRYCSRLF [R18Y] | 1.95
DEEERRRRVFDVPIRRRMCSRLF [R18M] | 2.31
DEEERRRRVFDVPIRRRKCSRLF [R18K] | 2.83
DEEERRRRVFDVPIRRRECSRLF [R18E] | 2.38
DEEERRRRVFDVPIRRRNCSRLF [R18N] | 1.76
DEEERRRRVFDVPIRRRACSRLF [R18A] | 1.69
DEEERRRRVFDVPIRRRICSRLF [R18I] | 1.34
DEEERRRRVFDVPIRRRHCSRLF [R18H] | 2.18
DEEERRRRVFDVPIRRRVCSRLF [R18V] | 1.83
DEEERRRRVFDVPIRRRGCSRLF [R18G] | 3.74
DEEERRRRVFDVPIRRRWCSRLF [R18W] | 2.31
DEEERRRRVFDVPIRRRPCSRLF [R18P] | 1.7
DEEERRRRVFDVPIRRRSCSRLF [R18S] | 2.26
DEEERRRRVFDVPIRRRTCSRLF [R18T] | 1.7
DEEERRRRVFDVPIRRRCCSRLF [R18C] | 2.29
DEEERRRRVFDVPIRRRQCSRLF [R18Q] | 1.78
DEEERRRRVFDVPIRRRLCSRLF [R18L] | 2.68
DEEERRRRVFDVPIRRRRCSYLF [R21Y] | 3.08
DEEERRRRVFDVPIRRRRCSLLF [R21L] | 2.6
DEEERRRRVFDVPIRRRRCSCLF [R21C] | 4.79
DEEERRRRVFDVPIRRRRCSFLF [R21F] | 3.04
DEEERRRRVFDVPIRRRRCSGLF [R21G] | 2.36
DEEERRRRVFDVPIRRRRCSKLF [R21K] | 3.27

Variant | protein stability index
DEEERRRRVFDVPIRRRRCSVLF [R21V] | 2.98
DEEERRRRVFDVPIRRRRCSELF [R21E] | 3.46
DEEERRRRVFDVPIRRRRCSSLF [R21S] | 4.35
DEEERRRRVFDVPIRRRRCSQLF [R21Q] | 3.62
DEEERRRRVFDVPIRRRRCSPLF [R21P] | 2.72
DEEERRRRVFDVPIRRRRCSMLF [R21M] | 2.87
DEEERRRRVFDVPIRRRRCSNLF [R21N] | 3.99
DEEERRRRVFDVPIRRRRCSWLF [R21W] | 2.53
DEEERRRRVFDVPIRRRRCSTLF [R21T] | 3.85
DEEERRRRVFDVPIRRRRCSILF [R21I] | 2.93
DEEERRRRVFDVPIRRRRCSHLF [R21H] | 3.59
DEEERRRRVFDVPIRRRRCSDLF [R21D] | 3.91
DEEERRRRVFDVPIRRRRCSALF [R21A] | 4.48
DEEERRRRVFDVPIRRRRCSRGF [L22G] | 3.06
DEEERRRRVFDVPIRRRRCSREF [L22E] | 4.92
DEEERRRRVFDVPIRRRRCSRFF [L22F] | 4.44
DEEERRRRVFDVPIRRRRCSRDF [L22D] | 4.94
DEEERRRRVFDVPIRRRRCSRCF [L22C] | 2.71
DEEERRRRVFDVPIRRRRCSRAF [L22A] | 3.3
DEEERRRRVFDVPIRRRRCMRLF [S20M] | 2.04
DEEERRRRVFDVPIRRRRCQRLF [S20Q] | 2.69
DEEERRRRVFDVPIRRRRCPRLF [S20P] | 2.51
DEEERRRRVFDVPIRRRRCNRLF [S20N] | 2.61
DEEERRRRVFDVPIRRRRCCRLF [S20C] | 4.36

Source: the supplement of paper PMC10567573
